Reference: patent publication US20220119513A1 (ZOETIS SERVICES, published 2022)

T1: TGFβ2 (R&D Systems)
T1 construct: also called TGFB2
T1 sequence (P61812 303-414, species assumed, looked up): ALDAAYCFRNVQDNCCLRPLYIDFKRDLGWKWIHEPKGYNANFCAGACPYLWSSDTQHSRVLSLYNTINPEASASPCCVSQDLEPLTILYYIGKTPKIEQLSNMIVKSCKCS

T2: TGFβ3 (R&D Systems) (Homo sapiens (Human), UniProt P10600 301-412, Active TGFβ3 is a disulfide-linked homodimer of this chain; one copy is given.)
T2 construct: also called TGFB3
T2 sequence: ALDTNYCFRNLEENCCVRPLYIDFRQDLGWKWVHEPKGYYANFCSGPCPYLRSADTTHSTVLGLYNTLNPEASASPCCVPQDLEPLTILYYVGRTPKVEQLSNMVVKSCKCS


Assays:
TGFβ1 (R&D Systems) [1] = target: T3, TGFβ1 (R&D Systems); experiment: single point SPR
T3 construct: also called TGFB1

TGFβ1 (R&D Systems) [2] = target: T3, TGFβ1 (R&D Systems); experiment: SPR full titration
TGFβ2 (R&D Systems) = target: T1, TGFβ2 (R&D Systems); experiment: SPR full titration
TGFβ3 (R&D Systems) = target: T2, TGFβ3 (R&D Systems); experiment: SPR full titration

T3 sequence (P01137 279-390): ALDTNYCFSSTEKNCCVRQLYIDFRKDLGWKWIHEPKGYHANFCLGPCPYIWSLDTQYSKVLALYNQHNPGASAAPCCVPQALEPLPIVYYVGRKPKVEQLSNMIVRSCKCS

| Kd (TGFβ1 (R&D Systems) [1]) [nM] | Binder | further results |
| --- | --- | --- |
| 0.93 | Can-SL501-VH3 Y111V / Can-SL501-VL2 (antibody, V domains shown) VH: EVQLVESGGDLVKPGGSLRLSCVASGFTFSSYGMHWVRQAPGKELEWVAVISYDGSIKYYADAVKGRFTISRDNAKNTLYLQMNSLRAEDTAVYYCARTGEYSGYDTDPQVSWGQGTTVTVSS VL: EIVMTQSPGSLAGSAGESVSINCRASQGIGDDLGWYQQKPGERPKLLIYGTSTLQSGVPARFSSSGSGTDFTLTINNLQAEDVGDYYCLQDSNYPLTFGAGTK |  |
| 3.51 | Can-SL501-VH3 S112T / Can-SL501-VL2 (antibody, V domains shown) VH: EVQLVESGGDLVKPGGSLRLSCVASGFTFSSYGMHWVRQAPGKELEWVAVISYDGSIKYYADAVKGRFTISRDNAKNTLYLQMNSLRAEDTAVYYCARTGEYSGYDTDPQYTWGQGTTVTVSS VL: EIVMTQSPGSLAGSAGESVSINCRASQGIGDDLGWYQQKPGERPKLLIYGTSTLQSGVPARFSSSGSGTDFTLTINNLQAEDVGDYYCLQDSNYPLTFGAGTK |  |
| 0.762 | Can-SL501-VH3 S112G / Can-SL501-VL2 (antibody, V domains shown) VH: EVQLVESGGDLVKPGGSLRLSCVASGFTFSSYGMHWVRQAPGKELEWVAVISYDGSIKYYADAVKGRFTISRDNAKNTLYLQMNSLRAEDTAVYYCARTGEYSGYDTDPQYGWGQGTTVTVSS VL: EIVMTQSPGSLAGSAGESVSINCRASQGIGDDLGWYQQKPGERPKLLIYGTSTLQSGVPARFSSSGSGTDFTLTINNLQAEDVGDYYCLQDSNYPLTFGAGTK |  |
| 3.4 | Can-SL501-VH3 S112N / Can-SL501-VL2 (antibody, V domains shown) VH: EVQLVESGGDLVKPGGSLRLSCVASGFTFSSYGMHWVRQAPGKELEWVAVISYDGSIKYYADAVKGRFTISRDNAKNTLYLQMNSLRAEDTAVYYCARTGEYSGYDTDPQYNWGQGTTVTVSS VL: EIVMTQSPGSLAGSAGESVSINCRASQGIGDDLGWYQQKPGERPKLLIYGTSTLQSGVPARFSSSGSGTDFTLTINNLQAEDVGDYYCLQDSNYPLTFGAGTK |  |
| 2.8 | Can-SL501-VH3 S112P / Can-SL501-VL2 (antibody, V domains shown) VH: EVQLVESGGDLVKPGGSLRLSCVASGFTFSSYGMHWVRQAPGKELEWVAVISYDGSIKYYADAVKGRFTISRDNAKNTLYLQMNSLRAEDTAVYYCARTGEYSGYDTDPQYPWGQGTTVTVSS VL: EIVMTQSPGSLAGSAGESVSINCRASQGIGDDLGWYQQKPGERPKLLIYGTSTLQSGVPARFSSSGSGTDFTLTINNLQAEDVGDYYCLQDSNYPLTFGAGTK |  |
| 0.877 | Can-SL501-VH3 S112A / Can-SL501-VL2 (antibody, V domains shown) VH: EVQLVESGGDLVKPGGSLRLSCVASGFTFSSYGMHWVRQAPGKELEWVAVISYDGSIKYYADAVKGRFTISRDNAKNTLYLQMNSLRAEDTAVYYCARTGEYSGYDTDPQYAWGQGTTVTVSS VL: EIVMTQSPGSLAGSAGESVSINCRASQGIGDDLGWYQQKPGERPKLLIYGTSTLQSGVPARFSSSGSGTDFTLTINNLQAEDVGDYYCLQDSNYPLTFGAGTK |  |
| 6.97 | Can-SL501-VH3 S112L / Can-SL501-VL2 (antibody, V domains shown) VH: EVQLVESGGDLVKPGGSLRLSCVASGFTFSSYGMHWVRQAPGKELEWVAVISYDGSIKYYADAVKGRFTISRDNAKNTLYLQMNSLRAEDTAVYYCARTGEYSGYDTDPQYLWGQGTTVTVSS VL: EIVMTQSPGSLAGSAGESVSINCRASQGIGDDLGWYQQKPGERPKLLIYGTSTLQSGVPARFSSSGSGTDFTLTINNLQAEDVGDYYCLQDSNYPLTFGAGTK |  |
|  | affinity matured HcLb 269 (antibody, V domains shown, full IgG; also called canHcLb/55SW/100DY/57SM/30IM + canHcLb/237ND/242TS) VH: EVQLVQSGAEVKKPGASVKVSCKTSGYTFMTYWMNWVRQAPGAGLDWMGQIFPAWGMTNYNEMFEGRVTLTADTSTSTAYMELSSLRAGDIAVYYCARGYGNYALDAMDYWGQGTLVTVSS VL: DIVMTQTPPSLSVSPRETASISCRASESVDSYGNSFMHWYLQKPGQSPQLLIYLASNLESGVSDRFSGSGSGTDFTLRISRVEANDTGVYYCQQNDEDPLSFGQGTK | Kd (TGFβ1 (R&D Systems) [2]): 4.4 nM; Kd (TGFβ2 (R&D Systems)): 3.05 nM; Kd (TGFβ3 (R&D Systems)): 0.99 nM |
|  | affinity matured HcLb 270 (antibody, V domains shown, full IgG; also called canHcLb/55SW/100DY/57SV/30IM + canHcLb/237ND/242TS) VH: EVQLVQSGAEVKKPGASVKVSCKTSGYTFMTYWMNWVRQAPGAGLDWMGQIFPAWGMTNYNEMFEGRVTLTADTSTSTAYMELSSLRAGDIAVYYCARGYGNYALDAMDYWGQGTLVTVSS VL: DIVMTQTPPSLSVSPRETASISCRASESVDSYGNSFMHWYLQKPGQSPQLLIYLASNLESGVSDRFSGSGSGTDFTLRISRVEANDTGVYYCQQNDEDPLSFGQGTK | Kd (TGFβ3 (R&D Systems)): 1.19 nM |
